The results in this text go back to patent publication US20160250307A1 (IMMATICS BIOTECHNOLOGIES, published 2016).

Assay [1] deals with HLA-A*02 (human). Briefly: UV-ligand exchange, anti-b2m ELISA; grade: exchange yield >=75%. On the technique in general: An ELISA detects its analyte on a solid surface through an enzyme-linked reagent.
Assay [2] has as its target HLA-A*02 (human). Description: UV-ligand exchange, anti-b2m ELISA; grade: exchange yield >=20%.

Molecule KIADFELPTI displayed a peptide exchange yield in assay [1] of at least 75%.

YLGEEYVKA showed a peptide exchange yield in assay [2] of 20 to 50%. In the case of SLVGDIGNVNM, in assay [2], the peptide exchange yield lay in the range of 20 to 50%. On to ALLELDEPLVL, for which the peptide exchange yield in assay [1] was at least 75%.

For QLIEVSSPITL, in assay [1], the peptide exchange yield was at least 75%. Take ILSPLSVAL: the peptide exchange yield in assay [1] is at least 75%. Same read-out and setting: to ALQDAIRQL belongs at least 75%; to LIGEFLEKV, at least 75%; to NLIDLDDLYV, at least 75%. Take KLLDLETERILL: the peptide exchange yield in assay [1] was at least 75%. Take KLLDNWDSV: in assay [1], the peptide exchange yield was at least 75%.

Turning to RLIDRIKTV, in assay [2], the peptide exchange yield lay within 20 to 50%. In assay [1], RLIDLHTNV gave a peptide exchange yield of at least 75%.

For the molecule FLIAEYFEHV, in assay [2], the peptide exchange yield was in the range of 20 to 50%. RIAGIRGIQGV: the peptide exchange yield in assay [1] is at least 75%. Still for that read-out and setting: then ALQDQLVLV, with at least 75%. In assay [2], RLYTMDGITV displayed a peptide exchange yield of 20 to 50%.

TLPDFRLPEI showed a peptide exchange yield in assay [1] of at least 75%.

KVLDKVFRA: the peptide exchange yield in assay [1] was at least 75%.

Turning to RLIEEIKNV, the peptide exchange yield in assay [2] was 20 to 50%. In assay [1], ALNAVRLLV had a peptide exchange yield of at least 75%. On the same count and under the same terms, to KIQEILTQV belongs at least 75%; to KLSNVLQQV, at least 75%. Take KQMEPLHAV: the peptide exchange yield in assay [2] was in the range of 20 to 50%. Turning to ILADLNLSV, in assay [1], the peptide exchange yield was at least 75%. For the molecule YLSQAADGAKVL, the peptide exchange yield in assay [2] was 20 to 50%.

KLLDEVTYLEA registered a peptide exchange yield in assay [1] of at least 75%.
